{"source": "patent US20250144229A1", "about": "“CONJUGATE OF ANTIBODY-ERIBULIN OR DERIVATIVE THEREOF, INTERMEDIATE THEREOF, PREPARATION METHOD THEREFOR, PHARMACEUTICAL COMPOSITION THEREOF AND USE THEREOF” (MEDLINK THERAPEUTICS (SUZHOU) CO., LTD., priority 2022, published 2025)", "key": {"A375": {"test_system": "A375", "assay": "Inhibitory activity of ADC on cell viability in vitro (CCK8), A375", "assay_type": "cell-based", "settings": "Homo sapiens, A-375, 168 h, 7 days incubation", "experimental": "(§1) HT29, NCI-H358 (HT29 and NCI-H358 are B7H3 positive tumor cells), SW480, A375, A549, and Calu-3 (Calu-3 is B7H3 negative tumor cells) tumor cells were digested by trypsin using conventional methods. Cells in the tube were collected and counted, then resuspended in the corresponding assay medium (containing 2% FBS), and added to a 96-well plate at 2000 to 5000 cells/well. 100 μL of ADC diluted in 2% FBS medium was added to the 96-well plate, with 3-fold serial dilution at an initial concentration of 150 µg/mL (12 concentration gradients). The plate was incubated at 37° C. under 5% CO2 for 7 days. 20 μL of CCK8 reagent was then added to each well, and the reaction was carried out for 2 to 6 hours. The plate was read on a microplate reader (detection wavelength: 450 nm). The test results are shown in Table 3-1, Table 3-2, and FIGS. 7A to 7E."}, "A549": {"test_system": "A549", "assay": "Inhibitory activity of ADC on cell viability in vitro (CCK8), A549", "assay_type": "cell-based", "settings": "Homo sapiens, A549, 168 h, 7 days incubation", "experimental": "as §1"}, "HT29": {"test_system": "HT29", "assay": "Inhibitory activity of ADC on cell viability in vitro (CCK8), HT29", "assay_type": "cell-based", "settings": "Homo sapiens, HT-29, 168 h, 7 days incubation, B7H3 positive tumor cells", "experimental": "as §1"}, "SW480": {"test_system": "SW480", "assay": "Inhibitory activity of ADC on cell viability in vitro (CCK8), SW480", "assay_type": "cell-based", "settings": "Homo sapiens, SW480, 168 h, 7 days incubation", "experimental": "as §1"}, "MCF-7 tumor cells": {"test_system": "MCF-7 tumor cells", "assay": "Cell affinity assay of anti-B7H3 antibody by FACS, MCF-7", "assay_type": "binding", "settings": "flow cytometry", "experimental": "(§2) B7H3 protein is highly expressed in a variety of solid tumor cells. The affinity of B7H3 full human antibody to tumor cells was tested by FACS. Specific experimental procedures: MCF-7 breast cancer cells, A549 human non-small cell lung cancer cells, and PC3 human prostate cancer cells grown to logarithmic phase were digested by trypsin, and resuspended to 5*10^5 cells/mL in PBS buffer containing 2% BSA. 100 μL of cell suspension was added to a 96-well plate. […] 100 μL of antibody suspension was then added into the 96-well plate and mixed homogeneously. The plate was incubated at 4° C. for 1 hour, washed twice with pre-cooled PBS at 300 μL/well each time, and centrifuged at 500 g for 5 minutes. 1:50 fluorescent secondary antibody APC anti-human IgG or PE anti-human IgG (purchased from Biolegend) was added at 100 μL/well and mixed homogeneously. The plate was incubated at 4° C. for 0.5 hours, washed twice with pre-cooled PBS at 300 μL/well each time, centrifuged at 500 g for 5 minutes, and resuspended in 500 μL of PBS. The average fluorescence signal value was measured by Beckman flow cytometer. The EC50 value was calculated from the average fluorescence signal value."}, "PC-3 tumor cells": {"test_system": "PC-3 tumor cells", "assay": "Cell affinity assay of anti-B7H3 antibody by FACS, PC-3", "assay_type": "binding, human", "settings": "flow cytometry", "experimental": "as §2"}, "[1]": {"target": "T1, human B7H3-4IgG-His protein (Homo sapiens, UniProt Q5ZPR3)", "T1 construct": "amino acids at positions 27 to 461 (Uniport protein No. Q5ZPR3-1) of human 4Ig B7H3; 6xHis (C); made in house; host or cells: HEK293F (transient, PTT5 vector)", "T1 sequence (Q5ZPR3 27-461)": "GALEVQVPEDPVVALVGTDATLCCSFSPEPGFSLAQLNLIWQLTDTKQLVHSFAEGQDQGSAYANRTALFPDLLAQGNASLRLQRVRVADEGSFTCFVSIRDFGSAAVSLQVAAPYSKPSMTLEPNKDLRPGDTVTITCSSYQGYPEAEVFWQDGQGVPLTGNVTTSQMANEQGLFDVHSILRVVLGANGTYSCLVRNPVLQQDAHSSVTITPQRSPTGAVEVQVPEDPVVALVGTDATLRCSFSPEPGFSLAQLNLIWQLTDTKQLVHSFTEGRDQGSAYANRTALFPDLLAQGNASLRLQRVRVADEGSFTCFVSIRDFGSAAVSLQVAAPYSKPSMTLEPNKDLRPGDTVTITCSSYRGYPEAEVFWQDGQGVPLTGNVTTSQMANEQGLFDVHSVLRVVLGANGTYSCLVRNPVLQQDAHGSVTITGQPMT", "assay": "ELISA protein affinity assay of anti-B7H3 antibody, human protein", "assay_type": "binding", "settings": "coated protein", "experimental": "The plate was washed five times with PBST. […] The absorbance was measured at 450 nm."}, "A549 tumor cells": {"test_system": "A549 tumor cells", "assay": "Cell affinity assay of anti-B7H3 antibody by FACS, A549", "assay_type": "binding, human", "settings": "flow cytometry; middle B7H3-expressing cells", "experimental": "as §2"}, "[2]": {"settings": "cited from earlier work"}, "[3]": {"target": "B7H3 protein on human tumor cells (MCF-7, A549, PC-3, HT29) (human) (UniProt Q5ZPR3)", "sequence (Q5ZPR3 29-534)": "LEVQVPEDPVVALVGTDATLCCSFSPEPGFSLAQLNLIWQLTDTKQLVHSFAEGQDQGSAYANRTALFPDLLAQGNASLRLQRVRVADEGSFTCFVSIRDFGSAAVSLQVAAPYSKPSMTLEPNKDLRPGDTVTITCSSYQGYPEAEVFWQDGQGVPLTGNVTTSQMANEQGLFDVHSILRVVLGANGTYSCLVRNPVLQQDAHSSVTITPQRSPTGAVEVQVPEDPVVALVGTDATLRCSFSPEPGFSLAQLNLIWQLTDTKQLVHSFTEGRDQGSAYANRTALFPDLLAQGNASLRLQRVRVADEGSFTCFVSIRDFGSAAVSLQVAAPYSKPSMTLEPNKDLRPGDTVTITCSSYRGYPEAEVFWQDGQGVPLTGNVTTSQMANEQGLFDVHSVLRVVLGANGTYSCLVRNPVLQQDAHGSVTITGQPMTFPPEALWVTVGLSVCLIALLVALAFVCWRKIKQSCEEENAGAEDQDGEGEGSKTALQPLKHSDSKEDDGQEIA", "assay": "flow cytometry on MCF-7 tumor cells"}, "[4]": {"target": "B7H3 protein on human tumor cells (MCF-7, A549, PC-3, HT29) (human) (UniProt Q5ZPR3)", "assay": "flow cytometry on PC-3 tumor cells"}, "[5]": {"target": "B7H3 protein on human tumor cells (MCF-7, A549, PC-3, HT29) (human) (UniProt Q5ZPR3)", "assay": "flow cytometry on MCF-7 tumor cells", "remark": "listed apart in the source"}, "[6]": {"target": "B7H3 protein on human tumor cells (MCF-7, A549, PC-3, HT29) (human) (UniProt Q5ZPR3)", "assay": "flow cytometry on A549 tumor cells"}, "[7]": {"target": "B7H3 protein on human tumor cells (MCF-7, A549, PC-3, HT29) (human) (UniProt Q5ZPR3)", "assay": "flow cytometry on A549 tumor cells", "remark": "listed apart in the source"}, "[8]": {"target": "monkey B7H3-4IgG-His (monkey)", "assay": "ELISA, antigen coated on the plate, anti-human Fc-HRP detection"}, "[9]": {"target": "T2, human B7H3-4IgG-His (human) (UniProt Q5ZPR3)", "T2 sequence": "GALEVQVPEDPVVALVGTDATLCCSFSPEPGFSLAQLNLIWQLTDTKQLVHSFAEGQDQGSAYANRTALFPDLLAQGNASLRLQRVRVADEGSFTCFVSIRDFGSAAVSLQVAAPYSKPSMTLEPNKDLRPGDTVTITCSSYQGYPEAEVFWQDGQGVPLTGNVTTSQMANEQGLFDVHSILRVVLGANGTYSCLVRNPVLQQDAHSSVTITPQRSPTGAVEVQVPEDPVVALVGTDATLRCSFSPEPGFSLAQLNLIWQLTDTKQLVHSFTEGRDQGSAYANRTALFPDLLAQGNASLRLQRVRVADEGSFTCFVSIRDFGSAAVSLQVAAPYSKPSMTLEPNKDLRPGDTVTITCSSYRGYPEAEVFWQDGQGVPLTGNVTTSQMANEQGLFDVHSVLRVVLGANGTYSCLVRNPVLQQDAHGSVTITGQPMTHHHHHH", "assay": "ELISA, antigen coated on the plate, anti-human Fc-HRP detection"}, "[10]": {"target": "monkey B7H3-4IgG-His (monkey)", "assay": "ELISA, antigen coated on the plate, anti-human Fc-HRP detection", "remark": "listed apart in the source"}, "[11]": {"target": "T2, human B7H3-4IgG-His (human)", "assay": "ELISA, antigen coated on the plate, anti-human Fc-HRP detection", "remark": "listed apart in the source"}}, "note": "“And” between values parts separate entries of the source, which are not always exact repeats. Equal entries are not always repeated. Structures can show the parent of a compound that is named as a salt. Where two headings read alike, the source gives them in different places.", "data": [{"molecule": "C=C1C[C@@H]2CC[C@@]34C[C@H]5O[C@H]6[C@@H](O3)[C@H]3O[C@H](CC[C@@H]3O[C@H]6[C@H]5O4)CC(=O)C[C@@H]3[C@@H](OC)[C@@H](C[C@H](O)CN)O[C@H]3C[C@H]3O[C@@H](CC[C@@H]1O2)C[C@@H](C)C3=C", "note": "[Eribulin, eribulin]", "values": [{"measurement": "IC50", "setting": "A375", "result": 1.14, "unit": "nM"}, {"measurement": "IC50", "setting": "A549", "result": 0.31, "unit": "nM"}, {"measurement": "IC50", "setting": "HT29", "result": 0.2, "unit": "nM"}, {"measurement": "IC50", "setting": "SW480", "result": 1.38, "unit": "nM"}]}, {"molecule": "B7H3-C1: anti-B7H3 antibody numbered M30-H1-L4 in CN103687945B", "values": [{"measurement": "MCF-7 tumor cells Maximum MFI", "setting": "MCF-7 tumor cells", "result": "83992 and 63194"}, {"measurement": "EC50", "setting": "MCF-7 tumor cells; high B7H3-expressing cells", "result": "1.71 nM and 1.36 nM"}, {"measurement": "PC-3 tumor cells Maximum MFI", "setting": "PC-3 tumor cells", "result": 6436}, {"measurement": "EC50", "setting": "PC-3 tumor cells; low B7H3-expressing cells", "result": 0.618, "unit": "nM"}, {"measurement": "EC50", "setting": "[1]", "result": 0.048, "unit": "nM"}, {"measurement": "EC50", "setting": "A549 tumor cells", "result": "1.86 nM and 1.05 nM"}]}, {"molecule": "C=C1C[C@@H]2CC[C@@]34C[C@H]5O[C@H]6[C@@H](O3)[C@H]3O[C@H](CC[C@@H]3O[C@H]6[C@H]5O4)CC(=O)C[C@@H]3[C@@H](OC)[C@@H](C[C@H](O)CN)O[C@H]3C[C@H]3O[C@@H](CC[C@@H]1O2)C[C@@H](C)C3=C", "note": "[Eribulin mesylate]", "values": [{"measurement": "maximum tolerated dose (MTD)", "setting": "[2]; intravenous infusion on day 1, 8 and 15 of a 28-day cycle, patients", "result": 1.4, "unit": "mg/m^2"}, {"measurement": "grade 3-4 adverse events: neutropenia", "setting": "[2]; patients treated with eribulin mesylate", "result": 64, "unit": "%"}]}, {"molecule": "antibody B7H3-C1 (antibody, INN chains, looked up, V domains shown) VH: QVQLVQSGAEVKKPGSSVKVSCKASGYTFTNYVMHWVRQAPGQGLEWMGYINPYNDDVKYNEKFKGRVTITADESTSTAYMELSSLRSEDTAVYYCARWGYYGSPLYYFDYWGQGTLVTVSS VL: EIVLTQSPATLSLSPGERATLSCRASSRLIYMHWYQQKPGQAPRPLIYATSNLASGIPARFSGSGSGTDFTLTISSLEPEDFAVYYCQQWNSNPPTFGQGTKVEIK", "values": [{"measurement": "EC50", "setting": "[3]", "result": 1.36, "unit": "nM"}, {"measurement": "Maximum MFI", "setting": "[3]", "result": 63200}, {"measurement": "EC50", "setting": "[4]", "result": 0.618, "unit": "nM"}, {"measurement": "Maximum MFI", "setting": "[4]", "result": 6440}, {"measurement": "EC50", "setting": "[5]", "result": 1.71, "unit": "nM"}, {"measurement": "Maximum MFI", "setting": "[5]", "result": 84000}, {"measurement": "EC50", "setting": "[6]", "result": 1.05, "unit": "nM"}, {"measurement": "Maximum MFI", "setting": "[6]", "result": 48000}, {"measurement": "EC50", "setting": "[7]", "result": 1.86, "unit": "nM"}, {"measurement": "Maximum MFI", "setting": "[7]", "result": 8270}, {"measurement": "EC50", "setting": "[8]", "result": 3.92, "unit": "nM"}, {"measurement": "EC50", "setting": "[9]", "result": 0.0519, "unit": "nM"}, {"measurement": "EC50", "setting": "[10]", "result": 0.167, "unit": "nM"}, {"measurement": "EC50", "setting": "[11]", "result": 0.048, "unit": "nM"}]}]}
